Columns and labels:
[1] = molecular target: the molecule itself; assay: CD thermal unfolding curve (222 nm, 292 microM peptide) fitted to a monomer-trimer equilibrium; self-association of the peptide
Description: The said synthesized peptide was dissolved at a concentration of 292 microM in 20 mM phosphate buffer (PBS), 150 mM NaCl, pH 7.2. The CD spectra were measured between […], at 5° C. and 90° C. (FIG. 3). The spectrum at 5° C. was indicative of a high alpha-helical secondary structure content, in agreement with the expectation that all heptad regions, but not all of the flanking residues, would assemble as alpha-helical coiled coils.
In order to analyze whether the temperature-induced transition between helical and non-helical states was reversible, a forward (up) and backward (down) thermal scan was performed on the same sample, by recording the CD signal at […] as a function of temperature at a scanning rate of about 1 degree Celsius per minute (FIG. 4). It was observed that the up and down scans almost perfectly coincided, thereby confirming the quantitative unfolding and refolding of the peptides in the sample.
FIG. 5 represents fitting of a theoretic equation for trimeric association to experimental data. The experimental data are taken from FIG. 4, curve labeled ‘UP’. The theoretic equations used are listed supra. The fitted parameters (fitting results) are listed at the right in FIG. 5. ‘Transit. T’ corresponds to Tₜ, but is expressed in degrees Celsius. The parameter ‘delta Cₚ’ was kept constant at 3.0 kJ mol⁻¹ K⁻¹. […]

[2] = molecular target: the molecule itself; assay: analytical sedimentation equilibrium ultracentrifugation, 25000 rpm, about 1 mg/ml; self-association of the peptide

| Protein | binding result [1] | binding result [2] |
| --- | --- | --- |
| Ac-MSIEEIQKQQAAIQKQIAAIQKQIYRMTP-NH2 (Synthetic designed coiled coil-forming peptide; also called said synthesized peptide) [peptide Ac-MSIEEIQKQQAAIQKQIAAIQKQIYRMTP-NH2 (reference artificial peptide of Example 3)] | binds |  |
| Ac-MSIEEIQKQIAAIQKQIAAIQKQIYRMTP-NH2 (Synthetic designed coiled coil-forming peptide; also called all-isoleucine core peptide) [Q2aI peptide Ac-MSIEEIQKQIAAIQKQIAAIQKQIYRMTP-NH2] |  | binds |
